Data as given in patent US11419945B2, “Antigen binding proteins” (Glaxo Group Limited, priority 2011, dated 2022).
Substitutions are numbered along the chain they refer to.

Tests used:
Human in house BCMA = target: T1, Human in house BCMA (Homo sapiens, UniProt Q02223); assay: ProteOn analysis of CA8 chimeric and humanised constructs, human in house BCMA; type: binding; conditions: for ka / kd / KD: ProteOn, 25° C.; for ka: in M-1s-1 (unit assumed); for kd: in s-1 (unit assumed); for off rate: Run 2, ProteOn, recombinant human BCMA, no affinity values obtained
T1 construct: CD33 signal peptide (N); TEV site (internal); Fc (C); made in house
T1 sequence (Q02223 with tags, fused parts or gaps limits assumed): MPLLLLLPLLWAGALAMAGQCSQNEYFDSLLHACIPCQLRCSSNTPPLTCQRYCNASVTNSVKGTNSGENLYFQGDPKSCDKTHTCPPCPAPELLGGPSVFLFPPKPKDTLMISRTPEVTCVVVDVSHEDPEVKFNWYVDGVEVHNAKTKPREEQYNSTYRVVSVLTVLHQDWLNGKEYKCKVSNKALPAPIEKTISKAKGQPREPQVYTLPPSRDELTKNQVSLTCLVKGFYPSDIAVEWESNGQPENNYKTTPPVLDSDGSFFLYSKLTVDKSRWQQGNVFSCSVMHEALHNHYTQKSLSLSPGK
Method: (§1) The initial screen of CA8 chimeric and humanised variants was carried out on the ProteOn XPR36 (Biorad). The method was as follows; Protein A was immobilised on a GLC chip (Biorad, Cat No: 176-5011) by primary amine coupling, CA8 variants were then captured on this surface and recombinant human BCMA (in house or commercial US Biological, B0410) materials (run 2 only)) passed over at 256, 64, 16, 4, 1 nM with a 0 nM injection (i.e. buffer alone) used to double reference the binding curves, the buffer used is the HBS-EP buffer. 50 mM NaOH was used to regenerate the capture surface. The data was fitted to the 1:1 model using the analysis software inherent to the ProteOn XPR36. Run 1 corresponds to the first screen of humanised CA8 variants (JO to J5 series) and run 2 to the second screen of humanised CA8 variants (J5 to J9 series). Both runs were carried out at 25° C.

Human commercial BCMA [1] = target: T2, Human commercial BCMA (Homo sapiens, UniProt Q02223); assay: ProteOn analysis of CA8 chimeric and humanised constructs, commercial human BCMA; type: binding; conditions: Run 2, commercial human BCMA, 25° C.
T2 construct: purchased US Biological B0410
T2 sequence (Q02223 1-184): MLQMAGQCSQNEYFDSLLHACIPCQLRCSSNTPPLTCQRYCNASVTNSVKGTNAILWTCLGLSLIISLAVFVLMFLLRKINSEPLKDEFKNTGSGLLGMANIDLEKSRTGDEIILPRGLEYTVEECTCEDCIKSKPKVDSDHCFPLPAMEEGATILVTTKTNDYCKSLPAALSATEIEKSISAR
Method: as §1

Cyno in house BCMA [2] = assay: ProteOn analysis of CA8 chimeric and humanised constructs, cyno in house BCMA; type: binding; conditions: 25° C.
Cyno in house BCMA, sequence (as listed by the source): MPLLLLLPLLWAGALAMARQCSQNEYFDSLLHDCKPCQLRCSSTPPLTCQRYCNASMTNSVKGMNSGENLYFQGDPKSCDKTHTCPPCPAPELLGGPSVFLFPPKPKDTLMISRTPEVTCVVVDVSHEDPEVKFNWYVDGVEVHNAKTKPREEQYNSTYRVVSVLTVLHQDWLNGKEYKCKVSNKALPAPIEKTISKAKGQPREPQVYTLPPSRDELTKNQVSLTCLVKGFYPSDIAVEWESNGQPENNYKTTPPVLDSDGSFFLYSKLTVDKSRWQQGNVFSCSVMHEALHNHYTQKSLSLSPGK

Human commercial BCMA [3] = target: T2, Human commercial BCMA; assay: BIAcore analysis of J6M0 and J9M0, human commercial BCMA; type: binding
Method: (§2) Protein A was immobilised on a CMS chip (GE Healthcare, Cat No: BR-1005-30) by primary amine coupling and this surface was then used to capture the antibody molecules. Recombinant human BCMA (US Biological, B0410) was used as analyte at 256 nM, 64 nM, 16 nM, 4 nM and 1 nM. Regeneration of the capture surface was carried out using 50 mM NaOH. All binding curves were double referenced with a buffer injection (i.e. 0 nM) the data was fitted to the using the 1:1 model inherent to T100 evaluation software. The run was carried out at 25° C. and 37° C. for experiment 1 and only 37° C. for experiment 2 using HBS-EP as the running buffer.

NCI-H929 tumours = assay: NCI-H929 murine xenograft; type: in vivo, CB.17 SCID mice
Method: FIG. 19: Effect of dose escalation of J6M0 and drug conjugated J6M0 on the growth and establishment of NCI-H929 cells in CB.17 SCID mice. Calculated tumour volumes of NCI-H929 tumours in CB17 SCID mice following twice weekly intraperitoneal dosing of either 50 or 100 ug J6M0 anti-BCMA or IgG1 isotype control unconjugated, or conjugated to MMAE or MMAF for 2 weeks. Data points represent mean tumour volume of n=5 per group
The cell line selected for xenograft studies was NCI-H929 which is sensitive to ADC and ADCC killing in vitro. Studies were carried out in immunocompromised CB.17 SCID mice which lack T and B cells but maintain NK cells to allow for ADCC activity.
In order to independently analyze both the ADCC and ADC activities of J6M0 we tested J6M0 antibody in the presence and absence of MMAF or MMAE conjugation. By testing the unconjugated J6M0, any anti-tumour effects could be attributed to some combination of ADDC and functional inhibitory activity.
Mice with NCI-H929 tumours that had reached a volume of 200 mm^3 on average were treated with a human IgG1 control or the J6M0 antibody (unconjugated, MMAE or MMAF) twice weekly at a dose of 50 ug or 100 ug, for 2 weeks.

Human commercial BCMA [4] = target: T2, Human commercial BCMA; assay: BIAcore analysis J7 to J9 series, human commercial BCMA; type: binding; conditions: 37° C.; for ka: in M-1s-1 (unit assumed); for kd: in s-1 (unit assumed)
Method: as §2, with “nM) and” for “nM)”, “at” for “at 25° C. and”, “C.,” for “C. for experiment 1 and only 37° C. for experiment 2”

Cyno in house BCMA [5] = assay: BIAcore analysis J7 to J9 series, cyno in house BCMA; type: binding; conditions: 37° C.; for ka: in M-1s-1 (unit assumed); for kd: in s-1 (unit assumed)

CA8 humanised J6M0
ka (Human in house BCMA; Run 2, Human in house BCMA): 2.40E+05
kd (Human in house BCMA; Run 2, Human in house BCMA): 7.40E−05
ka (Human commercial BCMA [1]; in M-1s-1 (unit assumed)): 6.23E+05
kd (Human commercial BCMA [1]; in s-1 (unit assumed)): 5.37E−05
ka (Cyno in house BCMA [2]; Run 2, Cyno in house BCMA, in M-1s-1 (unit assumed)): 5.64E+04
kd (Cyno in house BCMA [2]; Run 2, Cyno in house BCMA, in s-1 (unit assumed)): 3.18E−04
ka (Human commercial BCMA [3]; 25° C., Experiment 1, in M-1s-1 (unit assumed)): 1.01E+06
kd (Human commercial BCMA [3]; 25° C., Experiment 1, in s-1 (unit assumed)): 1.22E−04
ka (Human commercial BCMA [3]; 37° C., Experiment 1, in M-1s-1 (unit assumed)): 2.12E+06
kd (Human commercial BCMA [3]; 37° C., Experiment 1, in s-1 (unit assumed)): 1.48E−03
ka (Human commercial BCMA [3]; 37° C., Experiment 2, in M-1s-1 (unit assumed)): 3.78E+06
kd (Human commercial BCMA [3]; 37° C., Experiment 2, in s-1 (unit assumed)): 1.88E−03

J6M0-MMAF
anti-tumour activity compared with unconjugated J6M0 and J6M0-MMAE (NCI-H929 tumours; 50 ug or 100 ug twice weekly for 2 weeks): increased anti-tumour activity over both unconjugated J6M0 antibody and J6M0-MMAE conjugate
effect on NCI-H929 tumours (NCI-H929 tumours; 100 ug dose twice weekly for 2 weeks, intraperitoneal, tumours 200 mm^3 at start): elimination of tumours
recurrence of tumour (NCI-H929 tumours; mice maintained for 40 days after the last dose): no recurrence of tumour

B1: CA8 humanised J9M1: humanised CA8 anti-BCMA antibody, VH J9 (SEQ ID NO:29) + VL M1 (SEQ ID NO:33) (antibody, V domains shown)
VH: QVQLVQSGAEVKKPGSSVKVSCKGSGYTFTNYWMHWVRQAPGQGLEWIGATYRGHSDTYYNQKFKGRATLTADTSTSTAYMELSSLRSEDTAVYYCTRGAIYDGYDVLDNWGQGTLVTVSS
VL: DIQMTQSPSSLSASVGDRVTITCSASQDISNYLNWYQQKPGKAPKLLIYYTSNLHSGVPSRFSGSGSGTDYTLTISSLQPEDFATYYCQQYRKLPWTFGQGTKLEIKR
modifications: Humansed antibody sequence
off rate (Human in house BCMA): beyond the sensitivity of the assay
ka (Human commercial BCMA [4]): 1.96E+07
kd (Human commercial BCMA [4]): 3.50E−04
ka (Cyno in house BCMA [5]): 6.77E+05
kd (Cyno in house BCMA [5]): 2.99E−04

B2: S307118G03 humanised H2L0: humanised S307118G03, VH H2 (SEQ ID NO:81) + VL L0 (SEQ ID NO:89) (antibody, V domains shown)
VH: QVQLVQSGAEVKKPGSSVKVSCKASGYTFTDYYMKWVRQAPGQGLEWMGEIYPNNGGITYNQKFKGRVTITADKSTSTAYMELSSLRSEDTAVYYCANGYEFVYWGQGTLVTVSS
VL: B1 VL with D28G, N53S, Y71F, R92S
modifications: Humansed antibody sequence
ka (Human in house BCMA; Run 1, Human in house BCMA): 3.78E+05
kd (Human in house BCMA; Run 1, Human in house BCMA): 2.41E−03
KD (Cyno in house BCMA [2]; Run 1, Cyno in house BCMA): No

B3: S307118G03 H5L0: humanised S307118G03, VH H5 (SEQ ID NO:87) + VL L0 (SEQ ID NO:89) (antibody, V domains shown)
VH: B2 VH with M48I, V68A, I70L, A72V, V103D
VL: B1 VL with D28G, N53S, Y71F, R92S
modifications: Humansed antibody sequence
KD (Human in house BCMA; Run 2, Human in house BCMA): No Analysable Binding
KD (Human commercial BCMA [1]): V weak signal
KD (Cyno in house BCMA [2]; Run 2, Cyno in house BCMA): No

B4: S307118G03 H5L1: humanised S307118G03, VH H5 (SEQ ID NO:87) + VL L1 (SEQ ID NO:91) (antibody, V domains shown)
VH: B2 VH with M48I, V68A, I70L, A72V, V103D
VL: B1 VL with D28G, N53S, R92S
modifications: Humansed antibody sequence
KD (Human in house BCMA; Run 2, Human in house BCMA): No Analysable Binding
KD (Human commercial BCMA [1]): V weak signal
KD (Cyno in house BCMA [2]; Run 2, Cyno in house BCMA): No

B5: CA8 humanised J7M1: humanised CA8 anti-BCMA antibody, VH J7 (SEQ ID NO:25) + VL M1 (SEQ ID NO:33) (antibody, V domains shown)
VH: B1 VH with G24A, I48M, A68V, L70I, T74K, T97A
VL: B1 VL
modifications: Humansed antibody sequence
off rate (Human in house BCMA): beyond the sensitivity of the assay
ka (Human commercial BCMA [4]): 2.35E+06
kd (Human commercial BCMA [4]): 1.31E−04
ka (Cyno in house BCMA [5]): 3.70E+05
kd (Cyno in house BCMA [5]): 3.91E−04

B6: S307118G03 humanised H3L1: humanised S307118G03, VH H3 (SEQ ID NO:83) + VL L1 (SEQ ID NO:91) (antibody, V domains shown)
VH: B2 VH with M48I, V68A, I70L, A72V
VL: B1 VL with D28G, N53S, R92S
modifications: Humansed antibody sequence
ka (Human in house BCMA; Run 1, Human in house BCMA): 4.69E+05
kd (Human in house BCMA; Run 1, Human in house BCMA): 2.28E−03
KD (Cyno in house BCMA [2]; Run 1, Cyno in house BCMA): No

B7: CA8 humanised J7M2: humanised CA8 anti-BCMA antibody, VH J7 (SEQ ID NO:25) + VL M2 (SEQ ID NO:35) (antibody, V domains shown)
VH: B1 VH with G24A, I48M, A68V, L70I, T74K, T97A
VL: B1 VL with M4L, K45E, L47V
modifications: Humansed antibody sequence
off rate (Human in house BCMA): beyond the sensitivity of the assay
ka (Human commercial BCMA [4]): 2.37E+06
kd (Human commercial BCMA [4]): 1.35E−04
ka (Cyno in house BCMA [5]): 3.46E+05
kd (Cyno in house BCMA [5]): 4.47E−04

B8: S307118G03 humanised H3L0: humanised S307118G03, VH H3 (SEQ ID NO:83) + VL L0 (SEQ ID NO:89) (antibody, V domains shown)
VH: B2 VH with M48I, V68A, I70L, A72V
VL: B1 VL with D28G, N53S, Y71F, R92S
modifications: Humansed antibody sequence
ka (Human in house BCMA; Run 1, Human in house BCMA): 2.86E+05
kd (Human in house BCMA; Run 1, Human in house BCMA): 1.52E−03
KD (Cyno in house BCMA [2]; Run 1, Cyno in house BCMA): No

B9: S307118G03 humanised H2L1: humanised S307118G03, VH H2 (SEQ ID NO:81) + VL L1 (SEQ ID NO:91) (antibody, V domains shown)
VH: B2 VH
VL: B1 VL with D28G, N53S, R92S
modifications: Humansed antibody sequence
ka (Human in house BCMA; Run 1, Human in house BCMA): 3.38E+05
kd (Human in house BCMA; Run 1, Human in house BCMA): 2.15E−03
KD (Cyno in house BCMA [2]; Run 1, Cyno in house BCMA): No

B10: S307118G03 humanised H4L1: humanised S307118G03, VH H4 (SEQ ID NO:85) + VL L1 (SEQ ID NO:91) (antibody, V domains shown)
VH: B2 VH with N98D
VL: B1 VL with D28G, N53S, R92S
modifications: Humansed antibody sequence
KD (Human in house BCMA; Run 1, Human in house BCMA): No
KD (Cyno in house BCMA [2]; Run 1, Cyno in house BCMA): No
